In US20240182596A1 (TUBULIS, published 2024):

Tests used:
FcγRIIIa (CD16) (V158) = target: T1, FcγRIIIa (CD16) (V158) (Homo sapiens, UniProt P08637); assay: Lumit FcγRIIIa (V158) Binding Immunoassay (Promega), left panel FcγRIIIa (CD16) (V158), competition with Tracer-LgBiT, n=1
T1 construct: m21 joins both polymorphic variants; also called V158 variant of m21

[1] = target: T2, recombinant human FcRn (FcγRn-SmBiT, Lumit assay) (human, UniProt P55899 24-297; P61769 21-119); assay: Lumit FcRn Binding Immunoassay (Promega), competition with Tracer-LgBiT for FcRn-SmBiT, n=1
T2 construct: Kit reagent (Promega); not shown: SmBiT label of the kit

FcγRIIa (CD32) (H131) = target: T3, FcγRIIa (CD32) (H131) (Fused to the SmBiT luciferase fragment (Promega Lumit reagent), not carried in the letters); assay: Lumit FcγRIIa (H131) Binding Immunoassay (Promega), left panel FcγRIIa (CD32) (H131), competition with Tracer-LgBiT, n=1
T3 construct: m20 joins both polymorphic variants; also called H131 variant of m20; not shown: SmBiT tag (and any linker or purification tag) of Promega's FcγR-SmBiT fusion
T3 chain: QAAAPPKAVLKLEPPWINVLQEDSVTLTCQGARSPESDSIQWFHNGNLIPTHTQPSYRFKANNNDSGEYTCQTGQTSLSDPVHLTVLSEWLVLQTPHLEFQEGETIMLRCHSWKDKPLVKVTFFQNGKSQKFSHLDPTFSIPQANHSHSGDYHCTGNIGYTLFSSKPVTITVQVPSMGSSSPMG

[2] = target: T4, recombinant hexameric C1q complement protein (human) (human, UniProt P02745 23-245; P02746 28-253; P02747 29-245); assay: HTRF Human C1q Binding Kit (Cisbio), HTRF ratio at 70 nM antibody with the diluent-only background subtracted
T4 construct: also called complement factor C1q

[3] = target: T5, recombinant human FcγRI (FcγR-SmBiT, Lumit assay) (human, UniProt P12314 16-292); assay: Lumit FcγRI Binding Immunoassay (Promega), competition with Tracer-LgBiT for FcγRI-SmBiT, n=1
T5 construct: Kit reagent (Promega); also called FcγRI (CD64); not shown: SmBiT label of the kit

[4] = target: T6, purified recombinant human Napi2b antigen consisting of Napi2b-extracellular-loop2 expressed as … (human, UniProt O95436 234-362, limits assumed); assay: ELISA on immobilized recombinant human Napi2b extracellular loop 2-Fc-6-His, HRP anti-human kappa detection
T6 construct: Expressed in Expi-HEK293 cells; also called immobilized human NaPi2B; not shown: Fc part; 6-His tag
T6 sequence: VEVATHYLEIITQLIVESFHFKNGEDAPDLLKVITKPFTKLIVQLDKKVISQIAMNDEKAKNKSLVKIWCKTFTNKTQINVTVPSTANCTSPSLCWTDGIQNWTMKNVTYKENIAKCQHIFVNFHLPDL

[5] = target: T6, purified recombinant human Napi2b …; assay: ELISA, coated Napi2b-extracellular-loop2-Fc-6-His, apparent KD from one-site fit
[6] = target: T7, human Napi2b-mCherry on HEK293 cells (human, UniProt O95436 1-690); assay: flow cytometry on HEK293 cells stably expressing human full-length NaPi2b-mCherry, Alexa-dye anti-human IgG H+L secondary antibody, MFI ratio, one-site specific binding fit; the Kd table prints no unit, the concentration axis is in nM
T7 construct: also called Napi2b (SLC34A2); HEK293 cells overexpressing Napi2b
T7 sequence: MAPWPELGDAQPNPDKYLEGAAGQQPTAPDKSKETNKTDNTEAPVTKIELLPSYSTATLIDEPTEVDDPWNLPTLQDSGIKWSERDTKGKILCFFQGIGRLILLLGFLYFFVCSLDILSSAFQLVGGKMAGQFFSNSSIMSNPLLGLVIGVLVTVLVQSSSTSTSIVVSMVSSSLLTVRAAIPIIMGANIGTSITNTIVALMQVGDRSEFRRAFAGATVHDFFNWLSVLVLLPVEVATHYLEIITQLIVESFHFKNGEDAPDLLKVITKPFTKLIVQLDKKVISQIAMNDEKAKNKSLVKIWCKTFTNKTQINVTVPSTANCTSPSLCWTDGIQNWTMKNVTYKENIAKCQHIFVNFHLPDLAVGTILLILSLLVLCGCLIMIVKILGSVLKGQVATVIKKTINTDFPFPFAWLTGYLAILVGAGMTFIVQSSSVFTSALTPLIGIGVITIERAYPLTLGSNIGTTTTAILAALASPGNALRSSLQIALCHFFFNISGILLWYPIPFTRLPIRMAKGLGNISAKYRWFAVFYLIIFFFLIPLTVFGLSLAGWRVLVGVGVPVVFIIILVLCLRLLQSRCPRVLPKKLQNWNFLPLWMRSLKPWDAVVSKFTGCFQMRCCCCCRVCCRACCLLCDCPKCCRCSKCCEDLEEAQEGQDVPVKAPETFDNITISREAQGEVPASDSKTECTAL

[7] = target: T8, HEK293 rat-NaPi2B-mCherry (Rattus norvegicus, UniProt Q9JJ09); assay: flow cytometry on HEK293 cells stably expressing rat full-length NaPi2b-mCherry, Alexa-dye anti-human IgG H+L secondary antibody, MFI ratio, one-site specific binding fit; the Kd table prints no unit, the concentration axis is in nM
T8 construct: full-length mCherry fusion stably expressed on HEK293 cells; also called rat full-length NaPi2b-mCherry on HEK293 cells
T8 sequence (target on cells, looked up): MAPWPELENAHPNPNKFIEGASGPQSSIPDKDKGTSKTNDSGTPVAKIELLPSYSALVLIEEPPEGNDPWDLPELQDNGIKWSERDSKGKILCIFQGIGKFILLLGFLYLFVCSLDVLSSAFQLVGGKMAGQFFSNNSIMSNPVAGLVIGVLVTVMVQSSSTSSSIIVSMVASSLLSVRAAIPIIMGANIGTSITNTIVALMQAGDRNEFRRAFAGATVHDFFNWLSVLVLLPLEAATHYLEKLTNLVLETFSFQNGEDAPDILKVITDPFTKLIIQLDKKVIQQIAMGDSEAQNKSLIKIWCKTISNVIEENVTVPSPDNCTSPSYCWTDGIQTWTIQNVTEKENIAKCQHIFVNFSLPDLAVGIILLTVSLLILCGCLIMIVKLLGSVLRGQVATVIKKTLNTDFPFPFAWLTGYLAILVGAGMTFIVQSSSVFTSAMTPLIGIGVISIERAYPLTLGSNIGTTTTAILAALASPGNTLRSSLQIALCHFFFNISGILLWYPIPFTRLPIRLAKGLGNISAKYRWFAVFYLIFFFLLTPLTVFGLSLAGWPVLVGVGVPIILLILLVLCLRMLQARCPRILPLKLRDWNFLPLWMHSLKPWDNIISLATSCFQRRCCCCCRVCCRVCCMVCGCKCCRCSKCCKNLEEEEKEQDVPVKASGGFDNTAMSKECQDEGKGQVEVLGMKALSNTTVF

[8] = target: T9, human NaPi2b on NaPi2b-positive cell lines OVCAR-3 and HCC-78 (human, UniProt O95436 1-690); assay: flow cytometry on OVCAR-3 cells; table column Binding KD (nmol/L), FACS (OVCAR-3)
T9 construct: Endogenous protein
T9 sequence: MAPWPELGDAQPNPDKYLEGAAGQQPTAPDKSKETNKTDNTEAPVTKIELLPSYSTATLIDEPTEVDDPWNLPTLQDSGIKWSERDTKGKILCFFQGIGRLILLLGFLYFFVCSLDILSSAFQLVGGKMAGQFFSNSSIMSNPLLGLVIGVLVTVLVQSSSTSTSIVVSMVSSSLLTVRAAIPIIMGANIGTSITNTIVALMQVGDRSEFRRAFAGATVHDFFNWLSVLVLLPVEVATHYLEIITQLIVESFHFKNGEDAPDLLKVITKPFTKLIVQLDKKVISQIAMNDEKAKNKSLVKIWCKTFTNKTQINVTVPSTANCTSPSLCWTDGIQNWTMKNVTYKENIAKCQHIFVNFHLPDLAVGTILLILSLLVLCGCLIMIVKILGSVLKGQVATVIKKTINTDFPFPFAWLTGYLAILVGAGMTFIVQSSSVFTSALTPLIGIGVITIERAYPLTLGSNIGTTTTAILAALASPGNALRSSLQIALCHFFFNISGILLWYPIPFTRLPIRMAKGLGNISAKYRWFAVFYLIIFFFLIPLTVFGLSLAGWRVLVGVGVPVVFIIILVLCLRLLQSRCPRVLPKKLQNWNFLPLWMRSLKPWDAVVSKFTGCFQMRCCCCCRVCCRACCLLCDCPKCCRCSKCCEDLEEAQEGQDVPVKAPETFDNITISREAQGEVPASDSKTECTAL

[9] = target: T7, human Napi2b-mCherry on HEK293 cells; assay: flow cytometry on HEK293 cells stably expressing human full-length NaPi2b-mCherry, Alexa-dye anti-human IgG H+L secondary antibody, MFI ratio, one-site specific binding fit; the Kd table prints no unit, the concentration axis is in nM; second experiment on human cells, run beside the rat cells of FIG. 3D
[10] = target: T6, purified recombinant human Napi2b …; assay: ELISA on the isolated immobilized protein; table column Binding KD (nmol/L), ELISA
[11] = target: T10, HEK293 cyno-NaPi2B-mCherry (Macaca fascicularis, UniProt A0A2K5UHY1); assay: flow cytometry on HEK293 cells stably expressing cynomolgus full-length NaPi2b-mCherry, Alexa-dye anti-human IgG H+L secondary antibody, MFI ratio, one-site specific binding fit; the Kd table prints no unit, the concentration axis is in nM
T10 construct: full-length mCherry fusion stably expressed on HEK293 cells; also called cynomolgus full-length NaPi2b-mCherry on HEK293 cells
T10 sequence (target on cells): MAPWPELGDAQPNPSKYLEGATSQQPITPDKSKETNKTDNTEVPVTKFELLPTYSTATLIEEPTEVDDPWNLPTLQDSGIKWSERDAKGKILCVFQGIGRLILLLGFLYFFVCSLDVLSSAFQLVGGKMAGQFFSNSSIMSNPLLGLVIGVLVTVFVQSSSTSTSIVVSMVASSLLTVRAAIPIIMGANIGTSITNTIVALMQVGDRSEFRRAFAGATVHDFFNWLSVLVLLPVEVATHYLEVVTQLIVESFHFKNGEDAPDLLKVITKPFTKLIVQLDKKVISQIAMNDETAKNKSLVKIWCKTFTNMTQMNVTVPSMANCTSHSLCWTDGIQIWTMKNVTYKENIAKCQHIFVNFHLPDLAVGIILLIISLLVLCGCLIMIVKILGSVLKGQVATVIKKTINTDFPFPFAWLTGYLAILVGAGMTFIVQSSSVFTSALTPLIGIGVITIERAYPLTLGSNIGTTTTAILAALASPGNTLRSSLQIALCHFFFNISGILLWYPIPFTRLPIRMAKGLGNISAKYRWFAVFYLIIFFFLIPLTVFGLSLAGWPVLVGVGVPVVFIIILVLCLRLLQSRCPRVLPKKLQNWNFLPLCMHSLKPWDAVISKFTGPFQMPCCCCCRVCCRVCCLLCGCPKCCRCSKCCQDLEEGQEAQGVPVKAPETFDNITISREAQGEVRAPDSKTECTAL

Binder | IC50 (read off the curve) (FcγRIIIa (CD16) (V158)) [µg/mL] | IC50 (read off the curve) [1] [µg/mL] | IC50 (read off the curve) (FcγRIIa (CD32) (H131)) [µg/mL] | binding result [2] | IC50 (read off the curve) [3] [µg/mL] | EC50 (read off the curve) [4] [µg/mL] | Kd [5] [µg/mL] | Kd [6] [nM] | Kd [7] [nM] | Kd [8] [nM] | Kd [9] [nM] | Kd [10] [nM] | Kd [11] [nM]
Fc-wildtype AV25 (AV25 HC-wt) (antibody, IgG1 with wild-type Fc (L234, L235); also called AV25-wt) heavy: not shown light: DIQMTQSPSSLSASVGDRVTITCSASQDIGNFLNWYQQKPGKTVKVLIYYASSLYSGVPSRFSGSGSGTDYTLTISSLQPEDFATYYCQQYSKLPLTFGQGTKLELKRTVAAPSVFIFPPSDEQLKSGTASVVCLLNNFYPREAKVQWKVDNALQSGNSQESVTEQDSKDSTYSLSSTLTLSKADYEKHKVYACEVTHQGLSSPVTKSFNRGEC | ~2 | ~3 | ~1 | binds | ~0.02 | – | – | – | – | – | – | – | –
parental mAb (parental anti-NaPi2b antibody) (antibody, human IgG1, kappa, L234A L235A, V domains shown, also called parental antibody) VH: EVQLVQSGAEVVKPGASVKMSCKASGYTFTGYNIHWVKQAPGQGLEWIGAIYPGNGDTSYKQKFRGRATLTADTSTSTVYMELSSLRSEDSAVYYCARGETARATFAYWGQGTLVTVSS VL: DIQMTQSPSSLSASVGDRVTITCSASQDIGNFLNWYQQKPGKTVKVLIYYTSSLYSGVPSRFSGSGSGTDYTLTISSLQPEDFATYYCQQYSKLPLTFGQGTKLELKR | – | – | – | – | – | ~0.02 | 0.0221 | 5.43 | 6.88 | 10.8 | 2.85 | 0.147 | 4.48
